The DeepSol protein solubility set

Test: soluble on expression in E. coli; label from the status in PepcDB or PDB records

Soluble on expression in E. coli, not soluble:
MGSDKIHHHHHHSDLNSNIKDDPYSGGKAPLGIGLLAESPSPESAYPNDTVVFKAKGMLNWCDPQSGRYDFKFYISDEETKIVTATDTTITVKVPGNLSSGTAYIVLKEQVFYGPRLTVLGNIKIDQSYGFKGTSGPIYDCAEHYSKARVYYPVGDYMQAYYNENSSQSFSCISMVLTDGSVSGKWVTDFKLDPGQGAGIDLANPGVTDIECYLNSFTYFPSDHRVLLSGKFSEYGWDKLPVNNITIATNEVASYYKTVALPSKKNNTSINCKIPVFNGGTLEAPVRTFITSNEKVVAVGNITNYCRINTEKSYAESMVLDYSKVASVLRMSRTGELDDSYRRDAEGVIGQILDACMVESDGIVIVGTFSSFDGQSVKNIVKLNAEGTLDETFMKNIGTGANGSITKIRYNKNKKKILITGEFSEFNGIPAQSVVMLNDDGTRDEIFKIGKMEGGLANFACLLDNDNIVVSGAFTKYDGVTRRGFLILGRDGKALQQFNVPGIFQGELYKVIETRTSTNSNGLLLLGDFSRFDGNMVRNAIMIEVDYE, MGSDKIHHHHHHSGEKKESASEKGVETVLPDTKNEVSVMTLKKQIFNHELVSNGKISARGMADLRFESGEVIAHIWVKNGDRVRKGQKLAELDKFKLDNQLSQSEDALKKSELELRDVLISQGYPADDISQVPEETMKLAKVKSGYDQSKSQYEMSKYNAEHATLTAPFDGVVANLFSKPYNLASTSDVFCTVIDMQGMEVDFTVLESELPLIKNGDKVVIKPYSDAATVHEGSISEINPLVDDKGMVKVKARVNGAGKLFSGMNVRVSVHRSLGEQLVIPKSAVVLRSGKQVVFTLKDGKMAQWNYIHTALENADSYSVADGLTEGDTVIVSGNINLAHEAPVTIIE, MGSDKIHHHHHHTDDEEKDNNGQGSVSVETNYLPIADPYVMFYNNKYYAYGTGGTTAGEGFACFSSDDLKNWKREGQALSATDSYGTWGFWAPEVYYVESKKKFYLFYSAEEHICVATSTTPEGPFRQEVKQPIWSEKSIDTSLFIDDDGTPYLYFVRFTDGNVIWVAQMTDDLMSIKTETLNQCIKAEVSWELLQGKVAEGPSLLKKNGVYYLIYSANHYENKGYGVGYATSDTPMGPWVKYSKNPLLQGDAATGLVGTGHGAPFQCKDGSWKYIFHAHWSAAEIQPRTSYIKDFAISDQGVVTISGTVIKPRVLK, MGSDKIHHHHHHTSCIEDEKDYSQIIETRVANCETSKDFSVPVKEGYTTFVTSGEDTLAMANEPITIRIPKNATISTRAEGDGINISYTILDEGSETTYAKVWQAIMFEDTQNGDYDYNDLIIHVKNTASNHAYQHPTETWQTIEIQPIALGSTKTIKLGCILSDGSTHMISDDVRTDLFGGRQGFINTVNDNDPIRYKLASTNIKNYAMPKKEKTSAAWVAWFIEVDGKRMYAASSDIDYKSYDMVNKENMPYGLAVSNGNGTFSYPQEKNSLFETYPGFSDWINGKVSSIGSFQKELVYKYCSGGIIGEDGKSHKIWDYLDLN, MGSDKIHHHHHHVAAESKTIAIALNNDFINNLDLSPASTVIEQLLRDGAASHEQQLRFDINYDLEPGDPRELSEIPEIRLWFVRLDAKYPWLAFLLDWKAGEFARYAAMLVPHQFSSQDGIQYNPEALEIFLMHKIFILGDWLKQQDIPSLSRLKSMAQMLGYELDDAFFEIF, MGSDKIHHHHHHVCRNCSNKQKIRKNSMDYTDISILHTNDMHSYMENFPKKAQLIANIRARNEKEGVPTFVFDSGDLFSGNIFFNMYRGVKEIELMNQIGCQAMTLGNHEFDHGDELISRLDDYAQFPIVSSNLRYQDVEVADELVPLEDVLEFDMNGKNLYVLGLTTLETQEVASPSENVIFEDHKQALRRLVDQIVSQNPSAHLVLLSHLGYDEDVHLAKDFPELNVILGGHTHTILKQPSQIGGVSICQAGQYGRFVGHLSLRCFADGRREVQAYDLIEVEKLTQEDRAVKAIIDQMKSERDAAFSKPIAILPQALDGERDSIRQGLSTLAPVICQALFEQASQLGLQADGAVINGFGIRASLSAGPIFYSDLVKVLPFSKRVLLVRIKGRDLLSSLQTGLHPQMWGIVQSGEDLLVNGRAVESDKDYQIVTNSFVWSGKDNYDDFHKAEIVQDLGLDIDIISEFFKRQYGG, MGSDKIHHHHHHVGYPRDFQLNYATLFSVSPLVIDWGSYSQIEAEMRLFQAAAPGKYAYYHLLSGLDLPLANQDEIHAFFAAHPGKEFITYSSQKNGAQLLARVQKYHFTHNFRQPNKAMRLFRKIEKAEQRVFPVRKKFAGTLAFGSNWVSLENDLVQVLLREDDRIRTMFARGFLVDELLVPTMLNIYPEFKDRIYYDRPVHDRPEEFQGSLRYINWWDGSPYVWREKDYETLLAARRQGHLFSRKFDAEVDKAIIDKIAGQLLEIK, MGSDKIHHHHHHVIRSLWISKTGLDAQQTQMDVIANNLANVSTNGFKRSRAVFEDLLYQTLRQPGAQSSQQTQLPSGLQLGTGVRPVATEHIFTQGNLQQTGNSKDVAIQGQGFFQVLRPDGSTAYTRDGSFQTDFEGQLVTSSGYHVQPAITIPPNAQSITVGRDGIVSVTTQDSTTPVQVGNLQLATFINPAGLQSVGENLYVETASSGTPNVTNPGTDGAGLLNQGYVETSNVNVVEELVNMIQTQRAYEINSKSVQTSDQMLQRLTQL, MGSDKIHHHHHHVNETSHSLEYEAFIEEARHVVEARFGHTGTTGEVPRLLLRHGTVRMARDMARGIRPCQVKMPDVSGLQYGDFAPLDPLALLRDEVKLPSLPAVVAELRDVLSSPNSSAADVARVISRDAGLSAFLLRMVNSAFYSFPSRIDTVSRAVALVGRQQLSTLALGVMVIGAMRDLPVAHLDLSLFWQHSIACAVVAGQLAEAAGMEEPERFFVAGLLHDIGRLAVFSLLPDRAAAILSMCSDYGMPAQDAELRVLGFDHATLGGMLLRKWNFPMSLVFSTLHHHVPERSVRHVEPAVVHVADVVVKGLGIGVSGMHQLPGFKEDAWQRLGVSVAVLEQLIDGLEERLRDTSSLLLE, MGSDKIHHHHHHVNVEVCLFLIGHGAPGSEAGSTELSRFEAASQDIEGLRRFAIHVPAQADDCDPLSKTDASTCPRCVLQWYFDDLELLERTLQPGRAIHDLVDGSSNNGLTFTHQVMAVRTFATPNPSGPGTRAERCTYLVSYEGEAQDFNAWLTHYLLHHPPLMAQLPGIRELEIYTRLDYRSGLRIRRATAMQRNKVVFDDPAALAAALASPVRASMKQDFNAFPPYSGATLHFPMRSIYGNLKPK, MGSDKIHHHHHHVPVSQLPSQPTDNNSSAATDVTPVVALKELVARLHREQNKIQDLLSSLGFALRSFNNLNQFLELIPLMATRVTDADGSALFLYKPNGQVRLEQLHWQDSGQRKNIRKALEIASSQITLLPNAAPLANATGILDDQMHRYLGPDVQIFGTAILVKHTERGWLYVLSRDPEYSWTETRQKLVRLVADQTAVAIENDELAVELRKKERLDQELEIGAEIQRRLLPRQCPTIPGAVLAARCKPANRVGGDYYDFIATNQNKIRSKTKGDTETGRWGLVIGDVMGKGVPAGLIMTMMRGMLRGEVLHGNSPAKILQNLNRVMYADLENSHRFVTLFYSEYNPHSRILSYSNAAHNPPLWWHAATKTVSRLDTLGMLIGLDANSQYEDAQVQLEPGDTIIYYTDGLTDAAAAGGDRFDEDNFVAGFNTACKYCNGPEEIVDYLFDQVQQFIGDDKQNTDDMTLVVLQIL, MGSDKIHHHHHHVQDKNFDKLAHKFAKNIYGTPKGEIRAAVLWRDLSSALAPFGDKKLRILDAGGGFGFFSQKLARLGHEVVLCDISQEMLIQAQAHIDASTEPLNIELIHAPIQALSVEQNGVFDLILCHAVVEWLTDAQRTMEGLLTMLKPNGLFSLMFYNKEAMRFHALISGNFDYVAADLKVKKKVRLTPTHPLYIQEVKQWFMDWEMTLISQSGVRVIHDYLKKSQAADFDYQKLLQMELEYSQHEPYISLGRYVHFLGISRGT, MGSDKIHHHHHHVSKLSKTRIILACLLNDSVMTTTTAALTPNPIPDLGTDLTTEPCPLTAAQLDVLNRQIKLWGKELGFAHIGVADVDLSQHEAALQDWLDKGYHGEMGYMANHGMMRARPAELHPGAIRVICARMDYLPPDAGFASNLTDPNLGYISRYAGGRDYHKLIRQRLKKLGDKINQYCQQLDFDATDFRPFVDSAPILERPLADKAGLGWTGKHSLILHPDAGSWFFLGELLINLPLPLDIPIEEGCNTCVACIKSCPTDAIVEPYVVDARRCISYLTIELQGAIPEEFRPLIENRIYGCDDCQLVCPVNAKAPLTKETDFHTRTTLIQPDLLTLFAWSETYFLNQTEGSAIRRIGHKRWLRNIAIALGNAPANPAIIEALEQRKHSEEVDDMVLEHIEWALVQQIQKAPQSALSRKTQRVIRSIQKGLPRDA, MGSDKIHHHHHHVSPRIVIVGAGPGGMATAIRLAGQGYQVEIFEAVDRPGGRMRGFSLGDYHFDTGPTILQVPRVYDELFSSAGLRFSDYVTLIRLDPNTRIRFWDGEYLDLTSNIAAFKAQLARFDPALPAEFERWYIEHIRKNVVGYEPYLGTPVRSPLVYLKPREIAAALAFRPWESLYDHFKRFFRDERVVYALSYQAKYLGMHPTACSSVFSLVTFLEFADGIWHPRGGFRALAAGLAKAATDLGVVIHYNSPVKQVLVEEGRACGVELVGGERIKADAVVVNADFGHALTHIIPPHARGTYTDQKLNSMEFSCSTFMLYLGVNRRWDHLPHHQLYLSANIRRNDPLWAKSAVLDEDDPSFYVCNPTIVDPTNAPPGHSTLFVLVPVPNLRYPVDWAAVEQRYRDLIIRQMAKLGFEDVERHIVVERRYTAETWRDEHHTYLGAVFNLIHSWSQLGPFRPHIRHNGARNLYWIGGAVHPGSGLMTILEAAKSAVHFIGEDLPLHQTTAVAH, MGSDKIHHHHHHVSRSVSIYVCQSCGAQTRQFFGRCNNCGEWNSIIEEKINQKSDKSIYTKINSPKEKSPYRSELISQTKNQLIERISSGYKELDRVLGGGLVPGSLVLIGGDPGIGKSTLILQSATEMAHHKSVLYVAAEESAQQVKLRWNRIEDAESNLHLLAETDLEMVIKELDHLKPEVAVIDSIQALHDQSLSSSPGSVAQVRECSAALQQIAKRQNISLLIIGHVTKDGMLAGPKVLEHLVDAVLTFEGDRFASHRLLRGVKNRFGATSELGVFEMQADGLSEVPNPSELFLSKTSAPGISTIVTCEGTRPLAIDIQALLNPTSYASPRRTTTGIEINRLHQILAVLEKNMNLSLSRYDCYLAVAGGLEVEEPGADLGIAAAIVSSLKDIELEEGVVFIGEIGLAGQLRLVRQMQQRINEVIRLGYKTLIIPDGIDTSEFETNQKLKILKASNINQALIYALDNN, MGSDKIHHHHHHVSSDQVAVAGNAERLFNGAWYNLFEYGTTYANIGYRALQCQDDMMASDVVSRPKYGFNSSYQFNDVAIPSDGRTSFAWYLIYKTIDNCNTAISIKGDSEELRQAQGQALALRAFCYLHLVQHYQFTYLKDKDAPCVPIYTEPTTSGTKPKGKSTVAQVYQQIFDDLNLAQDYLTNYVRKGDGQKFKPNTDVVNGLMARAYLLTGQWGEAAKAAEAARKGYSLMTTTAEYEGFNNISNKEWIWGSPQTLSQSDASYNFYYLDATYVGAYSSFMADPHLMDTFVKGDIRLPLFQWMREGYLGYKKFHMRSDDTADLVLMRSAEMYLIEAEAKVRDGVALDQAVAPLNTLRTARGVGNYDVTGKTKEQVIDEILMERRRELWGEGFGITDVLRNQKAVERMALSEDMQKTEVDCWQEGGSFAKRNPLGHWFLNFPDGKAFSANSSYYLYAIPEKEINANPNL
